How the values were obtained:
Assay in all cases: flow cytometry, staining of IEs
[1] = biological target: erythrocytes infected with P. falciparum field isolate 11019
[2] = biological target: erythrocytes infected with P. falciparum field isolate 9106
[3] = biological target: erythrocytes infected with P. falciparum field isolate 9605
[4] = biological target: erythrocytes infected with P. falciparum field isolate 11014
[5] = biological target: erythrocytes infected with P. falciparum field isolate 10975
[6] = biological target: erythrocytes infected with P. falciparum field isolate 9775
[7] = biological target: erythrocytes infected with P. falciparum field isolate 9215
[8] = biological target: erythrocytes infected with P. falciparum field isolate 10936

Row | Binder | % parasite recognition [1] [%] | % parasite recognition [2] [%] | % parasite recognition [3] [%] | % parasite recognition [4] [%] | % parasite recognition [5] [%] | % parasite recognition [6] [%] | % parasite recognition [7] [%] | % parasite recognition [8] [%]
1 | MGD41 (antibody) VH: EVQLVESGPGLVKPSGTLSVTCTISGGSINTDKWWTWVRQPPGKGLEWVGEVLHTGSTNYNPSLRGRVTISVDKSKNQFSLRLSSVTAADTAVYYCATISTLRPQRDIEDLPRPSLSAEPGTVVPLGSHVTFVCRGPVGVQTFRLERESRSTYNDTEDVSQPSPFESEARFRIDSVSEGNAGPYRCIYYKSPKWSDQSDYVELLVKGEDVTWAPPQSQLAPRACPQGELRTSTDIFSMNVWGKGTTVTVSS VL: AIRMTQSPSSLSAFTGDRVTISCRASQDIGNYLDWYHQKPGRAPKLLIHGASTLLTGVPSRFSGSGSGTDFTLNITCLQSGDFGIYYCLQYYSSPPAFGPGTRLEIK | 6.8 | 3.8 | 17.2 | 6.6 | 7.3 | 8.6 | 14.7 | 6.1
2 | MGD47 (antibody) VH: QVRLQESGPGLVKPSGTLSLTCTVSGGSISGYKWWSWVRQAPGKGLEWIGQVYDDGDTNYNPDLKGRVALSVDKSKSRFSLSLASVTAADTAIYFCATISPLRPQSDTGDLPRPSISAEPGTAIPLGSQVTFVCRGPIGVQTFRLERESRALYNDSEDVSQVSPSASEARFRIDSVSEGNAGPYRCIYYKARRWSDQSDYLELLVKGEDVTWALPQSQLAPRACPQEDLNISTDIFSTNVWGKGTTVTVSS VL: AIRMTQSPASLSASVGDRVTITCRTSQDVGNYLDWYQQKPGKAPKLLIHGASTLQAGVPSRFNGSGSGTDFTLGISCVQSGDFAIYYCQQYYTSPPVFGQGTRLEIK | 24.6 | 10.7 | 28.7 | 10.2 | 11.2 | 14.4 | 22.3 | 11.3
3 | MGD55 (antibody) VH: QVQLQESGPGLVKPSGTLSLTCTVSGGSISAYKWWSWVRQAPGKGLEWIGQVYHNGNTNYNPSLKGRVAMSVDKSKNRFSLRLASVTAADTAVYYCATISPLRPQSDTDDLPRPSISAEPGTVIPLGSHVTFVCRGPIGVQTFRLERESRSLYSDTEDVSQVSPFASEARFRIDSVSEGNAGPYRCIYYKDRKWSDQSDYLELLVKGEDVTWALPQSQLAPRACPQEELNISTDIFSMNVWGKGTTVTVSS VL: AIRMTQSPASLSASIGDRVTITCRTSQDVGNYLDWYQQKPGKAPKLLIHGASTLQTGVPSRFSGSGAGTDFTLNITCLQSGDFAMYYCQQYYSSPPGFGQGTRLEIK | 33.1 | 14.3 | 37.2 | 14.7 | 15.6 | 19.4 | 38.8 | 13.3
4 | MGD56 (antibody) VH: QVQLQESGPGLVKPSGTLSLTCAVSGGSITTNNWWSWVRQTPGKGLEWIGEIFRSGTTNYNPSLKSRVAISLDKSKNQFSLKLTSVTAADTAVYYCATASPFKSQRDTKDLPRPSLSAEPGTVIPLGSHVTFVCRGPVGVQTFRLQRESRSLYNDTEDVSHPSPSESEARFRIDSVSEGNAGPYRCVYYKSSKWSEESDCLELLVKTEDVTWARPQPQLDPRACPRGDLRISTDVYYMDVWGKGTTVTVSS VL: AIRMTQSPSSLSASTGDRVTITCRASQAITSYLAWYRQKPGKAPDLLIYNASTLQSGVPSRFSASGSGTDFALTITGLQSEDFVIYFCQHYYTYPPAFGQGTRLEIK | 4.3 | 3.3 | 17.3 | 9.5 | 6.7 | 6.6 | 12 | 2.4
5 | MGC7 (antibody) VH: EVQLVESGGDLVQPGGSLRLSCAASGFTFRNYWMSWVRQTPGKGLEWVANIRQDGSEKYYVDSVKGRFTISRDNAKNLLYLQMNSLRAEDTAVYYCVRDKFCSDENHMHVADDLPRPSISPEPGTVIPLGSHVTFVCRGPVGVQTFRLEKDRRSTYNDTEDVSQPSPSESEARFRIDSVTEGNAGLYRCVYYKPPKWSDQSDFLELLVKGEDVTWALFPHCGADGEDSDYYMDVWGKGTTVTVSS VL: DIQMTQSPSSVSASVGDRVTITCRASQGLSTWLAWYQQKPGKAPKILIYAASSLQSGVPSRFSGSGSGTDFTLTISSLQPEDFATYYCQQANSFPLTFGGGTKVEIK | 13.8 | 6.9 | 22.8 | 2.9 | 0.7 | 4.6 | 19.3 | 1.7
6 | MGC34 (antibody) VH: EVQLVESGGGLVQPGGSLRLSCEASGFTFSSYWMSWVRQAPGKGLEWVANINQDGSQKDYVDSVKGRFTISRDTAKNSLYLQMNSLRAEDTAVYYCARERLCTDDSHMHGEEDLPRPSISAEPGTVIPLGSHVTFVCRGPVGIHTFRLERESRSLYTETEDVTQVSPSESEARFRIESVTEGNAGLYRCVYYKPPKWSEQSDYLELLVKGEDVTRALFTHCGGDGKESDYHMDVWGKGTTVTVSS VL: QTVVTQEPSLTVSPGGTVTLTCASSTGAVTSGYYPSWFHQKPGQPVRALIYSTSKTHSWTPARFSGSLLGGKAALTLSNVQPEDEADYYCLLYYGGPQPWVFGGGTKLTVQ | 34.1 | 6.8 | 23.7 | 11.4 | 15.2 | 17.5 | 27.1 | 11.3
7 | MGC17 (antibody) VH: EVQLVESGGGLVQPGGSLKLSCVASGFNFRKSWMSWVRQAPGKGLEWVANIREDGSKAYYVDSVKGRFTVSRDNAKNSLYLQINSLRADDTAVYYCARDRFCSDDEDHSHGAEDLPRPSISAEEGTVIPLGSRLTFVCRGPVGVHTFRLERDRRSTYNDTEDVSHPSPSESEARFRIDSVSEGNAGLYRCVYYKSPEWSKQSDYLELLVKGQEVTWALFTSCGGDGEVPDYDMDVRGKGTTVTVSS VL: DIVMTQSPDSLAVSLGERATINCKSSQSVLYRSKNKKYLAWFQQRPGQPPKVLIYWTSTRASGVPDRFSGSGSGTDFTLTISSLQADDVAVYYCQQYFIFPYTFGQGTKLEIR | 7.1 | 1.3 | 6.8 | 1.6 | 1.5 | 2.5 | 16.7 | 2.4
8 | MGC32 (antibody) VH: EVQLVESGGGLVQPGGSLRLSCVASGFNFRKSWMGWVRQAPGKGLEWVANIREDGSESFYADSVKGRFTVSRDNAKKSLYLHINSLRAEDTAVYYCARDRFCNDDEIHRHGQEDLPRPSISAAEGTVIPLGSHVTFVCRGPVGVQTFRLEKDSRSIYNDTENVSQPSPSESEARFRIDSVSEGNAGLYRCVYYKAPKWSAQSDYLELLVKGQEVTWALFTSCGGDGEEPDYDMDVRGKGTTVTVSS VL: DILMTQSPDSLAVSLGERATINCKSSQSVLYRSKNKNYLAWFQQKPGQPPKVLIYSTSTRASGVPDRFTGSGSGTDFTLTISSLQAEDVAVYYCLQYYITPYTFGQGTKLEIK | 38.1 | 7.8 | 22.9 | 4.5 | 3.2 | 7.9 | 13.1 | 2.9
9 | MGC26 (antibody) VH: EVQLVDSGGGLVQPGGSLRLSCAASGFTFSTYWMTWVRQTPGKGLEWVASIKQDGTERYYVDSVKGRFIISRDNAKNSLYLQMHSLRAEDTAVYYCVRDRFCRDHMHIEEDLPRPSISPEPATVIPLGSHVTIVCRGPVGVETFRLQKESRSLYNDTEDVSQPSPSESEARFRIDSVSEGHGGLYRCLYYKSSKWSEQSDYLEMLVKGEDVTWALFPYCGGDGEESDYYMDVWGKGTTVTVSS VL: DIQLTQSPSTLSASVGDRVTISCRASQRLSRSLAWYQQRPRKAPNLLIYKASPLEIGGPSRFTGSGSGTEFTLTISSLQPDDSATYYCQQYSNYSYSFGQGTKLEIR | 50.8 | 8.5 | 21.1 | 5.4 | 7.3 | 3.4 | 9.5 | 3.6
10 | MGC28 (antibody) VH: EVQLVESGGGLVQPGGSLRLSCEASGFTFSSYWMTWVRQAPGKGLEWVANINQDGSERYYVDSVKGRFTISRDTVKNSLYLQMNNLRAEDTAVYYCARQRFCSDGSLFHGEDLPRPTISAETGTVISLGSHVTFVCRGPLGVQTFRLERESRSRYSETEDVSQVGPSESEARFRIDSVSEGNAGLYRCIYYKPPKWSEQSDYLELRVKGEDVTWALLTYCGGDRDESDYYMDVWGKGTTVTVSS VL: QTVVTQEPSLTVSPGGTVTLTCASSTGSVTSGSFPNWFQQTPGQAPRSLIYSTTKKHSWTPARFSGSLLGGKAALTVSDTQPEDEAEYYCLLYCGGGQPWVFGGGTKLTVL | 30 | 7.5 | 20.9 | 2.8 | 12.3 | 9.8 | 10.8 | 3
11 | MGC33 (antibody) VH: EVHLVESGGGLVQPGGSLRLSCEASGFTFSSYWMTWVRQAPGKGLEWVANINQDGSERYYVDSVKGRFTISRDTVKNSLYLQMNNLRAEDTAVYYCARQRFCSDGSLFHGEDLPRPTISAETGTVISLGSHVTFVCRGPLGVQTFRLERESRSRYSETEDVSQVGPSESEARFRIDSVSEGNAGLYRCIYYKPPKWSEQSDYLELRVKGEDVTWALLTYCGGDRDESDYYMDVWGKGTTVTVSS VL: QTVVTQEPSLTVSPGGTVTLTCASSTGSVTSGSFPNWFQQTPGQAPRSLIYSTTKKHSWTPARFSGSLLGGKAALTVSDTQPEDEAEYYCLLYCGGGQPWVFGGGTKLTVQ | 23.5 | 7.5 | 22.3 | 2.9 | 11.5 | 9.7 | 11.5 | 3.6
